Results published in patent publication US7696313B2, “Prodrug compounds with isoleucine” (priority 2000, dated 2010).
“And” between values parts separate entries of the source, which are not always exact repeats. Identical values can stand only once. “Also recorded” adds a separate entry of the source.

What was measured:
[1] = Metabolism and clearance in normal mice (plasma and urine, LC MS/MS); assay type: in vivo; conditions: after Suc-βAla-Ile-Ala-Leu-Dox 117 mg/kg
tumor bearing mice [2] = conditions: repeat dosing, 5 doses; cited from earlier work
[3] = tested on: doxorubicin-resistant colorectal carcinoma LS174t; conditions: tolerated dose under this dosing regimen; cited from earlier work
[4] = tested on: LNCaP, HT-29 and PC-3 cells; test: 3H-thymidine proliferation assay, stated across the cell lines used; assay type: cell-based; conditions: 48 hours, 3H-thymidine incorporation; read-out: IC50 of the positive control in the cell lines used
Description: (§1) Adherent cells, LNCaP (prostate carcinoma), HT-29 (colon carcinoma) and PC-3 (prostate carcinoma), were cultured in DMEM media containing 10% heat inactivated fetal calf serum (FCS). On the day of the study the cells were detached from the plate with a trypsin solution. The collected cells were washed and resuspended at a concentration of 0.25×10^6 cells/ml in DMEM containing 10% FCS. 100 μl of cell suspension were added to 96 well plates and the plates were incubated for 3 hours to allow the cells to adhere. […] The plates were then incubated for 24 hours, pulsed with 10 μl of a 100 μCi/ml ^3H-thymidine and incubated for an additional 24 hours (total incubation time 48 hours). The plates were harvested using a 96 well Harvester (Packard Instruments) and counted on a Packard Top Count Counter. Four parameter logistic curves were fitted to the ^3H-thymidine incorporation as a function of drug molarity using Prism software to determine IC50 values.
(§2) Prostate carcinoma cells, LNCaP and PC-3 cells or colon carcinoma cells HT-29, were incubated with increasing concentration of the indicated compounds for 48 hours and cellular proliferation was measured using the ^3H-thymidine assay.

[5] = tested on: doxorubicin-resistant colorectal carcinoma LS174t; test: LS174t human colorectal carcinoma xenograft efficacy; assay type: in vivo, nude mice; conditions: uncorrected
Description: (§3) In repeat-dose studies in tumor bearing mice, groups of ten mice were dosed with various amounts of prodrug for a total of five doses at either five day or 1 week intervals.

[6] = Metabolism and clearance in normal mice (plasma and urine, LC MS/MS); assay type: in vivo
Description: The metabolism and clearance of Suc-Ile-Ala-Leu-Dox was studied in normal mice. The mice were administered Suc-Ile-Ala-Leu-Dox at a single intravenous bolus dose of 117 mg/kg. Plasma samples were obtained at 1 and 4 hours. Plasma samples of 100 μl were transferred to Eppendorf tubes (1.5 mL) and an internal standard of daunorubicin (20 μL at 0.5 mg/ml) was added together with acetonitrile (400 μl). The tubes were capped and briefly vortexed followed by centrifugation at 14,000 rpm. 420 μl from each tube was removed and dried in vacuo. Each sample was reconstituted in 65 μl ammonium formate containing acetonitrile (20%) prior to analysis by reverse phase liquid chromatography in combination with tandem mass spectrometry (LC MS/MS).
Urine was collected at 2 and 24 hours post administration from pairs of mice in metabolic cages. Urine samples were diluted with ammonium formate containing acetonitrile (20%) to give a target analyte concentration within the practical range of the LC MS/MS assay. 30 μl of each diluted sample was placed in an Eppendorf tube (1.5 ml) and an internal standard of daunorubicin (20 μL at 0.5 mg/ml) was added together with 50 μl of ammonium formate containing acetonitrile (20%). Each sample was then analyzed by LC MS/MS.
An Agilent HP 1100. HPLC with DAD detector and Chemstation software was coupled to a PE Sciex API 365 mass spectrometer with an electrospray ion source.
HPLC was performed on a TSK-Gel Super ODS, […], 4.6×50 mm (TosoHaas) reversed phase column equipped with a […] C18 guard disc (Higgins Analytical) and stainless steel frit (Upchurch Scientific). Chromatography was performed at room temperature. The flow rate was 0.5 ml/min. Injection volume was 50 μl. Gradient elution was performed using a mobile phase of 20 mM ammonium formate with increasing amounts of acetonitrile. The API 365 was operated at 365° C. in a multiple reaction monitoring mode, set to monitor specific analyte parent-daughter ion pairs. Integration of chromatograms was performed by MacQuan software (PE Sciex) and quantitation of each analyte obtained by comparison to previously obtained calibration curves. Daunorubicin was used as an internal standard in all cases.
Percent of administered dose—plasma volume estimated at 40% of blood volume, which was calculated at 7% of animal's body weight.
Plasma samples were obtained at 1 and 4 hours from separate mice. Urine was collected at 2 and 24 hours post administration from pairs of mice in metabolic cages. The plasma and urine samples were prepared and analyzed as described in Example 4.

[7] = mice
Description: (§9) Plasma was obtained from three individual animals in each group at 5 minutes, 1, 2, 4, or 6 hr.

[8] = mouse, in vivo, iv, 100 umol/kg
Description: as §9

[9] = Repeat-dose tolerance (RD-MTD) in tumor bearing mice; assay type: in vivo; conditions: mouse, in vivo
Description: as §3

tumor bearing mice [10] = test: as above; assay type: in vivo
Description: as §3

[11] = tested on: LNCaP (prostate carcinoma) cells; conditions: read-out: IC50 LNCaP; 48 hours, 3H-thymidine incorporation
Description: as §1, §2

[12] = tested on: HT-29 (colon carcinoma) cells; conditions: read-out: IC50 HT29; 48 hours, 3H-thymidine incorporation
Description: as §1, §2

[13] = tested on: PC-3 (prostate carcinoma) cells; conditions: read-out: IC50 PC-3; 48 hours, 3H-thymidine incorporation
Description: as §1, §2

normal ICR mice = test: Second single dose Maximum Tolerated Dose (SD-MTD) study, 49 days
Description: (§4) In a second single dose Maximum Tolerated Dose (SD-MTD) study, groups of five normal ICR mice were administered intravenously bolus doses of Suc-Ile-Ala-Leu-Dox. The mice were observed daily for 49 days and body weights measured twice weekly.
(§5) In a second single dose Maximum Tolerated Dose (SD-MTD) study, groups of five normal ICR mice were administered intravenous bolus doses of Suc-βAla-Ile-Ala-Leu-Dox. The mice were observed daily for 49 days and body weights measured twice weekly.

[14] = as above; conditions: mouse, in vivo, iv
Description: as §4, §5

normal mice = test: Initial single dose Maximum Tolerated Dose (MTD) study, 28 days; assay type: in vivo
Description: (§6) In our initial single dose Maximum Tolerated Dose (MTD) study, groups of five normal mice were administered intravenous bolus doses of Suc-Ile-Ala-Leu-Dox. The mice were observed daily for 28 days and body weights measured twice weekly.
(§7) The mice were observed daily for 28 days and body weights measured twice weekly.
(§8) In the single dose Maximum Tolerated Dose (MTD) studies, groups of normal mice were administered intravenous bolus doses of the prodrug. The mice were observed daily for 28 days and body weights measured twice weekly. The MTD was estimated to be equal to the highest dose that produced no death in mice after 28 days.

[15] = as above; assay type: in vivo, mice; conditions: mouse, in vivo
Description: as §6, §7, §8

## COc1cccc2c1C(=O)c1c(O)c3c(c(O)c1C2=O)C[C@@](O)(C(=O)CO)C[C@@H]3O[C@H]1C[C@H](N)[C@H](O)[C@H](C)O1 [Doxorubicin, reference compound]
[1]; collected 0-2 hours
  Urine 2 hr, percent of administered dose: 0.21 % of administered dose
[1]; collected 2-24 hours
  Urine 24 hr, percent of administered dose: 0.51 % of administered dose
Tumor bearing mice [2]
  tolerated repeat dose level of doxorubicin (standard safe RD efficacious dose): 4 mg/kg and 3 mg/kg
[3]
  efficacy of doxorubicin alone at its tolerated dose in LS174t model: historically ineffective; also recorded: completely ineffective
[4]
  IC50: 0.02 to 0.08 µM
[5]; five doses at five day or 1 week intervals, 60 days
  Optimal Efficacy Repeat Dose (mg/kg): 4 (4) mg/kg
[5]; value in parentheses
  Optimal Efficacy Repeat Dose, molar equivalent dose of doxorubicin: 4 (4) mg/kg
[6]; after Suc-Ile-Ala-Leu-Dox 117 mg/kg, collected 0-2 hours
  Urine 2 hr, percent of administered dose: 0.06 % of administered dose
[6]; after Suc-Ile-Ala-Leu-Dox 117 mg/kg, collected 2-24 hours
  Urine 24 hr, percent of administered dose: 0.36 % of administered dose
[6]; mouse, in vivo, 4 h
  Plasma 4 hr, percent of administered dose: 0.00 % of administered dose

## CC[C@H](C)[C@H](NC(=O)CCNC(=O)CCC(=O)O)C(=O)N[C@@H](C)C(=O)N[C@@H](CC(C)C)C(=O)N[C@H]1C[C@H](O[C@H]2C[C@](O)(C(=O)CO)Cc3c(O)c4c(c(O)c32)C(=O)c2c(OC)cccc2C4=O)O[C@@H](C)[C@H]1O [Suc-βAla-Ile-Ala-Leu-Dox]
[7]
  Major Plasma Metabolite, Table 7: Leu-Dox
  Major Plasma Metabolite, Table 8: Leu-Dox
[8]
  AUC(0-t): 326 µM·h
[9]; Q7Dx5 as printed, based on efficacy study in Example 8, read-out: RD-MTD (repeat-dose MTD)
  MTD: ~53 mg/kg
[9]; Repeat Dose MTD, doxorubicin equivalent dose, Table 8, value in parentheses, corrected results
  MTD: 30 mg/kg
[9]; corrected results, Q 5D × 5 or Q 7D × 5, read-out: Repeat Dose MTD (mg/kg), Table 8
  MTD: 53 mg/kg
Tumor bearing mice [10]; Q7Dx5 as printed
  RD-MTD, doxorubicin equivalent per dose: 30 mg/kg doxorubicin equivalent
Tumor bearing mice [10]; after 5 doses (Q5DX5)
  RD-MTD as total exposure: approximately 150 mg/kg doxorubicin equivalent
Tumor bearing mice [10]; high dose group (68 mg/kg, Q5DX5), groups of ten
  treated animals terminated due to signs of toxicity: Two
Tumor bearing mice [10]; versus doxorubicin 4 mg/kg
  RD-MTD fold higher than RD-MTD / tolerated repeat dose level of doxorubicin: at least 6.5 fold
[11]
  IC50: 0.19 µM
[12]
  IC50: 38 µM
[13]
  IC50: 57 µM
Normal ICR mice; 75 mg/kg dose group
  morbidity or mortality: no morbidity or mortality
Normal ICR mice; 100 mg/kg dose, by Day 21, groups of five
  animals euthanized due to weight loss or paralysis: three
Normal ICR mice; any dose level
  acute toxicity within 24 hours: no acute toxicity
Normal ICR mice; doxorubicin equivalent
  SD-MTD (mg/kg Dox=): 42 mg/kg Dox=
Normal ICR mice; fold higher on a molar basis than SD-MTD of doxorubicin
  SD-MTD Molar Ratio (Dox=): 2.6
[14]
  MTD: 75 mg/kg
Normal mice; 75 mg/kg dose group
  morbidity: no morbidity
Normal mice; 100 mg/kg dose group, Day 21, groups of five
  animals euthanized due to treatment-related toxicity: two
Normal mice; 125 mg/kg dose group, Day 14, groups of five
  animals euthanized due to treatment-related toxicity: four
Normal mice; about 75% active compound, versus doxorubicin […] mg/kg
  single dose MTD fold higher than doxorubicin alone, after post-analysis: approximately 3.7 fold
Normal mice; intravenous bolus, all dose levels tested
  acute toxicity: No acute toxicity
Normal mice; intravenous bolus, normal mice, 28 days
  single-dose MTD, doxorubicin equivalent: 40 mg of doxorubicin/kg
Normal mice; versus doxorubicin 4 mg/kg
  single-dose MTD fold higher than doxorubicin alone: approximately 10 fold
[15]; 28 days, uncorrected doses, read-out: SD MTD (mg/kg), Table 7
  MTD: 75 mg/kg
[15]; SD MTD, doxorubicin equivalent dose, Table 8, value in parentheses, corrected results
  MTD: 42 mg/kg
[15]; SD MTD, molar equivalent dose of doxorubicin, Table 7, value in parentheses, uncorrected
  MTD: 42 mg/kg
[15]; corrected results, read-out: SD MTD (mg/kg), Table 8
  MTD: 75 mg/kg
[15]; iv, intravenous bolus, normal mice, 28 days, read-out: single-dose Maximum Tolerated Dose (MTD)
  MTD: 75 mg/kg
[6]; mouse, in vivo
  Urine 2 hr, percent of administered dose: 12.7 % of administered dose
  Urine 24 hr, percent of administered dose: 4.81 % of administered dose
